# Experimental data reported in US11266715B2, “C3A receptor agonists for use against ischemic brain injury, stroke, traumatic brain injury, spinal cord injury and neurodegenerative disorders” (priority 2016, dated 2022).
# Test: In vivo epifluorescent imaging of labelled C3a after intranasal administration
# Parameters: species or system mouse
# Procedure: C3a (Complement Technologies) was labelled with VivoTag XL 680 fluorescent tag (Perkin Elmer) and purified according to manufacturer's instructions. A minimum of 10 μg of labelled C3a (0.4 mg/kg of body weight) was determined in a pilot experiment to be necessary for reliable detection of the fluorescent signal in live animals due to its significant attenuation by skull bones. Mice received 20 μl of PBS or 65 μM C3a-VivoTag (0.48 mg/kg of body weight) intranasally as described above. One and three hours later, mice were anesthetized with 2% isoflurane and imaged in the IVIS Lumina III Bio-imaging platform (Caliper Technologies). After imaging, mice were deeply anesthetized with isoflurane and killed by cervical dislocation for ex vivo imaging. Brains were quickly dissected from the skull and imaged using the same fluorescent filter sets. All mice and brains were imaged simultaneously with the PBS-treated control (acting as the tissue autofluorescence reference) placed in the middle, to minimize the potential confound of weaker illumination toward the sides of the observation field. Acquired images were processed and analysed using Living Image software (Caliper Technologies). Epifluorescent signal intensities are presented as radiant efficiency [(photons/sec/cm^2/sr)/(μW/cm^2)] after subtraction of the residual tissue autofluorescence signal defined by the PBS control.
substance,measurement,setting,value
fluorescently labelled C3a: C3a (Complement Technologies) labelled with VivoTag XL 680 fluorescent tag,time C3a is detectable in brain tissue after intranasal administration,"20 μl of 65 μM C3a-VivoTag (0.48 mg/kg) intranasal, imaged at 1 and 3 h, live and ex vivo",at least 3 hours
same,delivery to the brain by intranasal administration,epifluorescent imaging in live animals,can be delivered to the mouse brain through intranasal administration
